According to patent US20210196794A1 (SUNSHINE LAKE PHARMA, published 2021):
Residue numbers refer to the chain shown, from its start.

B1: fusion protein S5 (human IgG4 Fc - linker - FGF21 variant 98R, 167H, 171A, 175H) (Fc fusion)
chain: ESKYGPPCPPCPAPEAAGGPSVFLFPPKPKDTLMISRTPEVTCVVVDVSQEDPEVQFNWYVDGVEVHNAKTKPREEQFNSTYRVVSVLTVLHQDWLNGKEYKCKVSNKGLPSSIEKTISKAKGQPREPQVYTLPPSQEEMTKNQVSLTCLVKGFYPSDIAVEWESNGQPENNYKTTPPVLDSDGSFFLYSKLTVDKSRWQEGNVFSCSVMHEALHNHYTQKSLSLSLGGGGGSGGGGSGGGGSHPIPDSSPLLQFGGQVRQRYLYTDDAQQTEAHLEIREDGTVGGAADQSPESLLQLKALKPGVIQILGVKTSRFLCQRPDGALYGSLHFDPEACSFRERLLEDGYNVYQSEAHGLPLHLPGNKSPHRDPAPRGPARFLPLPGLPPALPEPPGILAPQPPDVGSSDPLHMVGASQGHSPSYAS
B2: fusion protein S7 (human IgG4 Fc - linker - FGF21 variant 98R, 171A) (Fc fusion)
chain: B1 chain with H410S, H418R
B3: fusion protein S4 (human IgG4 Fc - linker - FGF21 variant 98R, 167H, 171A, 175P) (Fc fusion)
chain: B1 chain with H418P
B4: fusion protein S1 (human IgG4 Fc - linker - FGF21 variant 98R, 167H, 171A) (Fc fusion)
chain: B1 chain with H418R
notes: Purified from HEK293F cells by Protein A
B5: fusion protein S2 (human IgG4 Fc - linker - FGF21 variant 98R, 167H, 171A, 175L) (Fc fusion)
chain: B1 chain with H418L

How the values were obtained:
[1] = molecular target: βKlotho protein (AVIVA SYSTEMS BIOLOGY); assay: ELISA on coated βKlotho, detection with anti-human IgG4 Fc-HRP, OD450
Sequence of βKlotho protein (AVIVA SYSTEMS BIOLOGY) (chain, as listed by the source): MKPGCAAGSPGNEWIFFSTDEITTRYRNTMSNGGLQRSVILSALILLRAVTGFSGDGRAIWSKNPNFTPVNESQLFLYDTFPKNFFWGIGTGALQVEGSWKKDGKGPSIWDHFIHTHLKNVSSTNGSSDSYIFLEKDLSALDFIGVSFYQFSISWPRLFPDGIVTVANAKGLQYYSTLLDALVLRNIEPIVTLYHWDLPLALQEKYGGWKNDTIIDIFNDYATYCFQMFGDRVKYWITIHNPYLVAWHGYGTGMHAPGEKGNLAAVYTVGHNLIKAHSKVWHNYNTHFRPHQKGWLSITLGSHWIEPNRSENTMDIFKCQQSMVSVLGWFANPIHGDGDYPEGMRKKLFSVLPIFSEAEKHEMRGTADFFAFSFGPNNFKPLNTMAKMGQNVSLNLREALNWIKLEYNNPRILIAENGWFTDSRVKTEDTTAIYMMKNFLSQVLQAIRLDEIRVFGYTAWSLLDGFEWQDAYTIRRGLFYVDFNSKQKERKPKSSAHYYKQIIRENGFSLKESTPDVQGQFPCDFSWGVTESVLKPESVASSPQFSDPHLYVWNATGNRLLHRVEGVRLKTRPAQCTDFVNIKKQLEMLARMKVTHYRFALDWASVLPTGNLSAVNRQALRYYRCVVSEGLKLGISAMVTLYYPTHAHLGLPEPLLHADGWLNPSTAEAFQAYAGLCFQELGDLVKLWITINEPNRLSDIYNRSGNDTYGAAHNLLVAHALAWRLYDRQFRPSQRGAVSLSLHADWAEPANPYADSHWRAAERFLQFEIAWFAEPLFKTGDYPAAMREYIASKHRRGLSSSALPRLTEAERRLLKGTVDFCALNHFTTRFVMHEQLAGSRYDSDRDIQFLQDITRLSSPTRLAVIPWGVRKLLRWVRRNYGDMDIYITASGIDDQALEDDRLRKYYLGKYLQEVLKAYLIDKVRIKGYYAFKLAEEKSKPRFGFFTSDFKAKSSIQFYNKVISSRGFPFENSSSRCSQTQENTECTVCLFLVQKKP

[2] = molecular target: βKlotho protein (AVIVA SYSTEMS BIOLOGY); assay: BLI (Octet RED 96), biotinylated βKlotho on streptavidin probe, fusion protein at 40 nM
[3] = molecular target: βKlotho protein (AVIVA SYSTEMS BIOLOGY); assay: BLI (Octet RED 96), biotinylated βKlotho on streptavidin probe

| Binder | EC50 (read off the curve) [1] | Kd [2] | Response values [2] | binding ability relative to S7 [3] |
| --- | --- | --- | --- | --- |
| B1 | ~0.2 µg/mL | – | – | – |
| B2 | – | 0.873 nM | 0.143 | – |
| B3 | ~0.08 µg/mL | – | – | – |
| B4 | ~0.02 µg/mL | 0.63 nM | 0.17 | – |
| B5 | ~0.02 µg/mL | 0.429 nM | 0.19 | 2 fold |
